Four molecules from article PMC3114041, “Architectures of archaeal GINS complexes, essential DNA replication initiation factors” (BMC Biology, 2011) can be followed below.

In series [1] the target is Thermococcus kodakaraensis Gins51ΔC (Met1-Arg130) (Thermococcus kodakaraensis). Nature of the series: SEC; Superdex 200 PC 3.2/30 on a SMART system; 50 mM Tris-HCl pH 8.0, 0.15 M NaCl, 7 mM β-mercaptoethanol, 0.1 mM EDTA; 20 μl of each protein at 20 μM; fractions on SDS-PAGE. (In general: SEC sorts molecules by how far they enter the pores of the column.)
Series [2] concerns the molecule itself. The description is as above.
Series [3] concerns the molecule itself. Nature of the series: SEC + other: electron microscopy; data not shown (Ogino et al.).

Regarding “Thermococcus kodakaraensis Gins51ΔC (Met1-Arg130) (domain or fragment)”, the stoichiometry N (usually a count of units in the complex or per binding partner) in series [1] stood at 2.

B1: Thermococcus kodakaraensis Gins23 (natural protein, UniProt Q5JIT2 1-164, looked up)
chain: MFTGKALIAVKVMKPFGDWKSGDIVLVEDWKARELWEAGVVEIVDETDKIIGEIDKVIAEERESEPLTLLPEGLYERAEFYAYYLENYVRLNPRESVDTINVKLTKLANLRKKLRDLKLIRFNKILKAVMLRPNSLELLSRLAPEERRIYLQMSKIRNEWLGDA
notes: Gins23 subunit of the GINS complex of Thermococcus kodakaraensis; gins23 gene cloned into modified pET28 (thrombin site replaced by a TEV protease site); 94 to 100 and 132 to 133 missing); The final atomic model holds seven amino acids derived from the N-terminal tag; also called TkoGins23; BA-type subunit of TkoGINS; source: E. coli codonPlus (DE3)-RIL, co-expressed with Gins51, purified (heat …
For B1, in series [2], the “stoichiometry N” value was 2.

B2: Thermococcus kodakaraensis Gins51 (natural protein, UniProt Q5JF31 1-188, looked up)
chain: MDIVKLRELLEAELSSTDLNELDEDFYVEFDSLIKALKLSAESSRERGEDVEERLYLAQLKIAESLMKEIIKLRLHKIVDLAVEGKIAEMTAEEKRLFNVIRAFIEREELPEISEEVQPQEESEAEAEYRSKEVPKEAYIIQIDLPAVLGPDMKEYGPFMAGDMAIIPTVIGRALVEREAARRVRIFL
notes: Gins51 subunit of the GINS complex of Thermococcus kodakaraensis; gins51 gene cloned into pET21a; also called TkoGins51; AB-type subunit of TkoGINS; source: E. coli codonPlus (DE3)-RIL, co-expressed with Gins23, purified (heat 80°C, HiTrap Phenyl, hydroxyapatite, HiTrap Q)
Regarding B2, the “stoichiometry N” value in series [2] worked out at 2.

B3: Thermoplasma acidophilum GINS subunit (TacGins) (natural protein, UniProt Q9HJC8 1-233, looked up)
chain: MKPADIDKLISEIRTAIYAEQSHRKIIEIDPDIYRKVRAALSDLQAEASEYFQKQDIENYLTMNNRFQTLKRDFRSLFQRRFEKIVAKAIYDISGETLSLLTDEEKEFIEKIHNIITEEFESFIPKREEKNEARAEAQPAPADESPTAIADQKPQEEPQVVQDQHQPPAEIPSENIEIKKEDGRYVLVMITEDLPPIAQLDRNYSLHSNDLVYLPQDLASILAKRKVALVLDQ
notes: TacGins, conserved hypothetical protein of Thermoplasma acidophilum, gene Ta1042 cloned into pET21a; the homology model counts residues 1 to 233; also called Ta1042; source: E. coli BL21 codonPlus (DE3)-RIL, purified (heat 60°C, polyethyleneimine, HiTrap Phenyl, HiTrap Q)
Take B3: in series [3], the “stoichiometry N” value was found to be 4.
